Experimental data taken from patent publication US20250042956A1 (University of California, published 2025).

Key:
Test in all cases: IP-MS rep 1
AT3G10480.3 NAC050 = target: T1, AT3G10480.3 NAC050 (Arabidopsis thaliana, UniProt Q9SQX9 1-447, limits assumed)
T1 construct: Endogenous protein found by mass spectrometry
T1 sequence (looked up): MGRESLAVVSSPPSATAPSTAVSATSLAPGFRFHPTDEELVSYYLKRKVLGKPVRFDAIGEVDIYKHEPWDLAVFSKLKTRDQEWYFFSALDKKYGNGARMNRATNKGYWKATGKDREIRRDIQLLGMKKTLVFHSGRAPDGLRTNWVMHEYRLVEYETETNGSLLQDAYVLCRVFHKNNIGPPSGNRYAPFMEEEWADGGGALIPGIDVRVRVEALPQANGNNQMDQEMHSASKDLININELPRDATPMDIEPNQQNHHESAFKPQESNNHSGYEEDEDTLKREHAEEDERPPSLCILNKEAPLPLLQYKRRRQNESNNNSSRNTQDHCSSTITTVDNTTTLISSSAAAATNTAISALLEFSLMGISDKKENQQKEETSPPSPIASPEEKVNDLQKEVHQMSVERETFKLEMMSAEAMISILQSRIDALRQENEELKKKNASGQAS
Outline: (§1)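 Peptide counts for co-purified proteins come from mass spectrometry of proteins pulled down from Arabidopsis floral buds with anti-FLAG magnetic beads. Ten grams of unopened buds from wild-type and FLAG-tagged transgenic lines were ground in liquid nitrogen and homogenised in 25 mL IP buffer. Lysates were held with 250 μL anti-FLAG M2 magnetic beads at 4° C for 2 hours, and bound proteins were eluted in TBS with 250 μg/mL 3×FLAG peptides.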

AT3G20740.1 FIE = target: T2, AT3G20740.1 FIE (Arabidopsis thaliana, UniProt Q9LT47 1-369)
T2 construct: Endogenous protein found by mass spectrometry; also called FERTILIZATION INDEPENDENT ENDOSPERM
T2 sequence (looked up): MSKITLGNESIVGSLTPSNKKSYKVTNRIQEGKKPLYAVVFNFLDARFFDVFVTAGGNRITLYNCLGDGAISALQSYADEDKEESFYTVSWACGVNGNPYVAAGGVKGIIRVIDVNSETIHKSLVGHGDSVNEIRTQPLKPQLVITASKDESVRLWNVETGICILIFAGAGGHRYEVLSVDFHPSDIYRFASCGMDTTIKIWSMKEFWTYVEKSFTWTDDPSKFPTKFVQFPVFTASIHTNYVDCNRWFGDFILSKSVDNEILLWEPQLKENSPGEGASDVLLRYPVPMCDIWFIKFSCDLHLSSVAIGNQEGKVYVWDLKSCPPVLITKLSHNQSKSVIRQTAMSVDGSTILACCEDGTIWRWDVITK
Outline: as §1

AT5G08450.1 HDC1 = target: T3, AT5G08450.1 HDC1 (Arabidopsis thaliana)
T3 construct: Endogenous protein found by mass spectrometry
Outline: as §1

AT2G23380.1 CLF = target: T4, AT2G23380.1 CLF (Arabidopsis thaliana, UniProt P93831 1-902)
T4 construct: Endogenous protein found by mass spectrometry; also called CURLY LEAF
T4 sequence (looked up): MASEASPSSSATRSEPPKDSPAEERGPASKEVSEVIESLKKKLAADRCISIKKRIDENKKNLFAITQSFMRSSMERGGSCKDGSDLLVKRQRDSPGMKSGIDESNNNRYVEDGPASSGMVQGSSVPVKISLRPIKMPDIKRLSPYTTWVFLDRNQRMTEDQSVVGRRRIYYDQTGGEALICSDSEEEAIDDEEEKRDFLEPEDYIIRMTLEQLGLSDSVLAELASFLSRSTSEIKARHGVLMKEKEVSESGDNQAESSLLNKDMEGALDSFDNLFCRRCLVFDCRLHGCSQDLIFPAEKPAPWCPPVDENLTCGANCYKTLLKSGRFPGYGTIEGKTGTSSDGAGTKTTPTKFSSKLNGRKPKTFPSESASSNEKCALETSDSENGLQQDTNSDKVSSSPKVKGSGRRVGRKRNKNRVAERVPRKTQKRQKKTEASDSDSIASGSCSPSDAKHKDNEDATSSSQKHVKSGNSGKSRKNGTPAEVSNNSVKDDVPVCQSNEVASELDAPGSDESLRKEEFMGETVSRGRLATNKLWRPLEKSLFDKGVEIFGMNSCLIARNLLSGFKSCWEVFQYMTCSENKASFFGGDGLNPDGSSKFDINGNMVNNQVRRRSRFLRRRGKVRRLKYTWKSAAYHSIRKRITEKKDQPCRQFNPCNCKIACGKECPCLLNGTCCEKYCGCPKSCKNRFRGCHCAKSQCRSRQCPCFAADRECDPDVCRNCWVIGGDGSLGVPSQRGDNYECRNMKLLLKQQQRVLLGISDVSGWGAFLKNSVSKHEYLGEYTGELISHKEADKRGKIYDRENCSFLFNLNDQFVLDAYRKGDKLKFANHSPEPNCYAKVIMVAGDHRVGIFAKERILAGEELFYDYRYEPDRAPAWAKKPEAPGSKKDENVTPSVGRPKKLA
Outline: as §1

AT3G49850.1 TRB3 = target: T5, AT3G49850.1 TRB3 (Arabidopsis thaliana, UniProt Q9M2X3 1-295)
T5 construct: Endogenous protein found by mass spectrometry
T5 sequence: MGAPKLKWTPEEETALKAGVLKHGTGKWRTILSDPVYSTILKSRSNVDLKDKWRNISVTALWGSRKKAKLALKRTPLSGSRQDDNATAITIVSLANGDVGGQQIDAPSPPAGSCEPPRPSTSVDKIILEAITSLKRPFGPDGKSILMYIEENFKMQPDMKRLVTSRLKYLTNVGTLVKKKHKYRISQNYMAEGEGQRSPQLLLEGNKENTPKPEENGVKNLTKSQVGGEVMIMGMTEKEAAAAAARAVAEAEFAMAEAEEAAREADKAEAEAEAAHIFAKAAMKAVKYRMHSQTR
Outline: as §1

AT4G35510.1 TRBIP1 = target: T6, AT4G35510.1 TRBIP1 (Arabidopsis thaliana)
T6 construct: Endogenous protein found by mass spectrometry
T6 chain: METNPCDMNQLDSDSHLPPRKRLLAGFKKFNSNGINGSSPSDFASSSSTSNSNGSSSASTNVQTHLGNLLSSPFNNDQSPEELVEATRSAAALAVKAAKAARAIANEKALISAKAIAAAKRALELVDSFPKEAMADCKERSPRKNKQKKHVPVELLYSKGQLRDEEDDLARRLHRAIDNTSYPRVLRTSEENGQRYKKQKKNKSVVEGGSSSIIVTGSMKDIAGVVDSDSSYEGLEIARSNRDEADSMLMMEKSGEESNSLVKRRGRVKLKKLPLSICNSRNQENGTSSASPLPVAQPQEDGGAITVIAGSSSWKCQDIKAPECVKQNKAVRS
Outline: as §1

- IP-MS count (AT3G10480.3 NAC050): 1
- IP-MS count (AT3G20740.1 FIE): 1
- IP-MS count (AT5G08450.1 HDC1): 2
- IP-MS count (AT2G23380.1 CLF): 0
- IP-MS count (AT3G49850.1 TRB3): 8
- IP-MS count (AT4G35510.1 TRBIP1): 1
B1: TRBIP2 (bait of the TRBIP2 IP-MS) (other, not shown: small tags and cut ends)
chain: MATNACLESDSLLPPRKRLLAGFKNQNSRISNESPSPPFASSSSSTTTSNGSSASAVVHTHHLDHLLNDQTRSPEELAQASKATAALAVKVAKAARATANEKAIIASKAVAAAKNALELFASFPAAETVSCKEPRLIRAINNSPRVLTDCSGHRNKKQKTLTSTMNDGNDVAGVVDSDDGTRVNGKLLLCDNTLKEKTEEESSSLGKRRGRVKLPLSMCAYKDQENGITLEENNLSVSKSEGYNGGVAQVIERPSWKCQDLKSPECVKQNKVVRS
notes: tag and its position not described; also called TRBIP2-1; TRBIP2-2
